The record followed here is the NTF2 design screens of Basanta et al. (2020).

The nature of the data set: protease stability score; higher = more stable; yeast display proteolysis, trypsin and chymotrypsin.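 Also: log10 excess protease needed over predicted unfolded state with 0 meaning unfolded.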
“DDEKKAKSFVDDLRKILKTGDPEQMRDNADKDARLVIGDQTFHGREDAASKLVTLVKRFDHARFNVKSMTMHNGRIDVDMTFTLRVDGKNERHRVKITVEEHNGRLKMKEVHWS” yielded a protease stability score of 0.991. For the sequence “DEEHQKEVLEHMTTNDPQFLRDLADEDVRVNVGDKEVKGREEFRRVLEHELRRIDRIQVKRVHVEGEKFKIDRKVTFDGKTLDYEVNFTIHNGRLKQMRVQARSEDLEEKMKELHG”, the protease stability score was found to be 0.36. As for “DHHHARELLTRVIRALITGDEKKVADQIDPNAEFQYGDKTFHGRDQVRRFVKEWKKHVDHVELKTYDARGDKAKAIFVVDHNGHKKQVVLQLKVENGRVKSIRITDG”, the figure is 1.74. Sequence “DEQKQAHDLLRQLDEAMRENDPDTMRDLFDKDAHVKVGDKEFRGTQKVREFNEELKRQADHFSVDVKRMETRPGHFNVQLVLHMETNGRTDHLKFRVRMRVVNGRAVVVTLHQG” displayed a protease stability score of 0.692.

Consider “DEELITSANEMLQQLTTGNPQEIEKQADPNARVVVGDKTYTGMDQMARDRATEVQQIRRSFRIKTVQNQGDNANIHAEYEFNINGQPRTFELTLNVEAHNGKFVHIKYHLDPDHLNKLES”, for which the protease stability score is -0.078.

With “DQELRDQVERLLHLEKHGDNDEVLRQFDPNAKAQVGDTRYHGMTTAVRDMVRQQNEARFSFEIHHVSVSGDRVVIDAVYVKDHNGKPSTRRVHIQMHFRNGKVQERRQNDDG”, the protease stability score was 0.782. As for “DEDDQERKLRKIAKNITKGDKTSLLKMVDKDAKASVGDKTVEGDNQLKRVMEERTRRIDHLDLKDVKVTGNTLVVHYVIHHNGKNKHQVAFVVLDNGRIKSMSFHDG”, the figure is -0.08. To “DEKREKDVAENFNTILENNDPDNLRKQAPPEAHAVIGDTRYRGMETFVTIMKKMWDEVDHFTVDDYQVQNGRVTIQAHVQVNGRQVTLHLEMIIDNGHITHIRMDPRQYRQFEG” belongs -0.434. “DEERQDQAEEFWKILQTGDPDKAREELRDDVHVHVGDKVIHGMEDVDRDIERVRKQIRVEFDVRHIDSQGERISVEANIMENENGKPETAQLTVIIDMHNGRVVRIVFEKRK”: the protease stability score turned out to be 1.96. To “DEQSVAEELFENLQDAVRENNPDEYKKLVDPNVNFDVGDKKVHGREQASEKFRQDLERADHIDMKVTSLRVDNGRAQADVRVTRVINGESETVEYILRFEVHGDEAVVKSQHDK” belongs 0.45. As for “DTESLKKVEDVVNNNDKKKHERLLDKDVRIVVGDKEVRGREQAARDYKRFVNHADHIEIKRVRSNGDKLFIDRVVNFNGQTVHFVVTYVVKNGSIQEVSVKVTDKEHLKLYKEALR”, the figure is 0.196.

As for “DEEDLQKLARSFQENLKTGNPDELMKLFDEDANLHYGDKKVHGREDIRRWADEMRRRVDKVTVLQVDAHGDKMDAVIVQRFDGRDVMISVDAKFHNGRFKEVVYRVRDEEHEKRLHT”, the protease stability score was determined as 1.38. “DEEDQEKFARDFVRILKDGNPDRARKMFDENARVHVGEKVVHGRDQIRTLVEEIHRRADRINITDFRVHGNSFVFIVVLEKNGETRSFTIVVIVHNGRAQSMHVQSN” had a protease stability score of 0.96. As for “DEDDKQEFAKSYNEVWKTGNEENAKRLFDENARMRVGDKEFHGHESIAHFLAEQVKRIDHIEFKQVDVQGEDMVFVFHFTVDGRKVHMTVKLRIHNGRIKDATINPQDIKKMEK”, the figure is 0.603; as for “DDTLKRRISELLRAEKHNDPDKINRLFDPNAHIEYGDHRIHGREELKRQITKRMKELRFRIDRVDLEVKGNHARLRIDMTQNHNGTPRRMILDVKINASNGTIHSVDVKLDG”, 0.297. In turn, “DEHAKHVVETYMTAQKHNNPKDAQKMVDPNARFSVGDKEVQGSEQLDKEIQRDNKEIREHVESMSVDVDGDKAHVDRTVKFQRNGKPHKLKVHLNFRLTNGRIKTVQVDEDG” returned a protease stability score of -0.308. To “DEEDYKKMNEQLERIYKHGDPEEAEKMFDPNAKAEVGDKTIHGREEFRKYQQDRKDQADHVQVKDFKVQGERFVMEVVAHVNGREVRQVVNFTVHNGKIQDLKVREK” belongs 0.013; to “DEKDHARHLVKRLLHAIRTGNPDEAMRLAPPNVRVSYGDTQIHGREQFHKWVKTIRDTVDRQRFTIVNVTVHNGQANVSIRYRLNHNGKDDKNEMTARFVEHNGQLKLVSMSRS”, 0.522; to “DEDKVKKIAEELWKAISNGDEERMKKLMRDDVRAQVGDTEVHGREHVVHQLATFAKQVDHLTMETYDIRGNHVTFRFQARVNGKRVQIDMVIHVSNGRIKELRIDPKQVKELES”, 1.22. “DEERKAEEMAKSIIKVWQSGDHHQQQRNADEDVRFEIGDKRINGDHQLEDWVKKIKEQYDHIEVRIKSVTRQGDKLVVIAQVVYNENGHRRQVTVRFVAVDHNGTIVLKRAIYR” displayed a protease stability score of 0.406.

With “DEDALTRLREFDDNVRKGNKHRLQDLMDPNVKVRYGDTEIKGREHVAKELKKLVDTMHIEIDYKSMSAEGNHATLTAEVVVQVNGRPIKFRMHVQVQFENGKIKELVYRFSEDAQKKMDG”, the protease stability score was 1.53. Consider “DQHVEDVARKFINAMQTGDPDRLKELFDPNARQQVGDTVVTGREHAAKKWKEWVDEMEVHVQLRSIDVRGDKATLRFKLEVRVNGKPSQQDVTMVIHMHNGRAVDVKLSIDERDKKEIDS”, for which the protease stability score is 1.42. As for “DDEVLDDLVRLIKDNDWEQMANNADKDVKIQIGDKTWHGREQVEEVMRRMQETIDHLDIRSVTRHNGQVKVENRIEVNGQTIIYTVVFQAHNGRLKSMRVQATSHHAEDVMRQVIN”, the figure is 0.792; as for “DDEEADKIVEELVKAMEHNDEKHFMELVDPNAKVRYGDTEYHGEDQIQTMFREIVEQADTVQVRSYRVENGEARVEANFRVNGRNAIVTMSATFHNGRVQSLRLHARDEEDRNKLDN”, 0.999.

In turn, “DDQDIRHILDQWRTGDFDQVRNQADENANIVYGDKRYHGREQLQEWMKTLKEQIDHFHIRSITQKGDKARFEAEADVNGVDVKFSVVISVHNGRVKFFEFQWTSEELLERIKHEIG” displayed a protease stability score of 0.942.

In the case of “EEDILKRVKHMLKQLETGNEKEYEKNIDPNVKIKVGDKEIRGREEASRYWHRLRHHMRIRVDVKSMNVKNGQVNMNATVTVDVNGRPVRFEFRMVIHATNGTIKEVTLQVDPDQIRKQLG”, the protease stability score is 1.61.

Sequence “DESDVERLTEIMEQNDFDQWVDQADKDAELVVGDKTLKGRETIQRWLKILSERVDHVSIKHIRNNGEEVDVKMTMIINGHRFEFVVNLTVHNGKITRFNFNFRDPDQLRRLHDQMS” returned a protease stability score of 1.25. To “DEKKAKELAETMFKYIQNGDEEKAQKYVDDNVEYKYIDKEYEGKDVVKEVVDKIKKLGVEVKLKRAEVKGDRVTADFEYKHGDNTVRTTVEVQYEGDRVKKARVELTDEARKVIDKG” belongs 0.352. In turn, “DEKRYTEIAEKVFKYARNGNEEEMRKDGMPDLKYKYIDKEYEGEDAMRFVVELVKKIGAEDRQEKQEVKGNTAEAVFVYHNGDETVTTKAQVHYEGDKVKEVRVELTDEVKKVIKKG” yielded a protease stability score of 0.135. As to “DEEDLKKLAKELEKAIKTGDPQKIVDMADPNAKAQIGDKEVHGQENLHEAMQKLSREVDHIEIRSLSIHGEKVELVFVLQVNGRKRTYTVEMTAHNGKITHMTWRHQ”, the protease stability score turned out to be 0.284. As for “DDEEDHRVARLASTALQTGDPNQFKNLVDEDVKADVGDKTYHGHEQVMEMFKKFVDQVDHIKVKRVEVDGETARVDAEADINGRTKKIVLDVQAHNGHIKRVQMETS”, the figure is 0.39; as for “DDTARQVYEDAADALRTGDEDEFRKQVDKDVRLTYGDKFIHGREEAARQLRDRQSTMRDEWDINEVQVRNGTINVDANKRNHENGQPQDVNLRVEVHAHNGKLTELRYTVQQ”, -0.177. “DEDLAKRFVTFIKIMLNGDPDKLEKMMDENATVNVGDRRLTGHETIAKDLHRLINESRVHIQLRDFDVRPGRVELEFEAERKHDGRPHTSRFIVIVKDHNGKMVKIVVKQTK” yielded a protease stability score of 1.02. As for “DEDLERKAKKYIDALDTGDPDEVSKLVDPNVKFMYGDKTFHGRDQLRRIIQRISDQQRVHVDIKTFSAKGDKVEIKARIEVETDGRPRQFHAIYRMRVHNGKITHISVEMRQ”, the figure is 1.23; as for “DDEKVKSFMKNVVRAWKHNNPDEMAKLADPNARAHVGDKEVHGRHQVKTMITEQLTRVDHVDIRHVHANGDKITIHATLNVNGRTRSVKIEIRFDNGKITDIRMDPDAVKEIKK”, 0.199; as for “DQDAQRQLREAMKDEESGDHRSIRENIDPNAKLDVGDKDVTGRENVAKEIKHQVDESRVKIDHYRMEVHGDRVTVTFNAVETHNGQPRRKTYQVIFKIHNGQFKKIMMRTSQ”, 0.546. For “DDETLNELVETLMKAWNQGNPDDLNKLIDKDAKIIIGETHIHGRDEFRKWADTLHRQVDHYQFDSVTAHNGRVRMHMKLRVNGVNVVVHVKVQAHNGRIKRMRMRWRNEEDKKKVEQ”, the protease stability score was 1.39. To “EEELEKEAEKFFRIVHDGNEDDLKRYMDPNVDITVGDKSLTGHSHYARRVKQKKRELRVDIKIESIKADGNRVSATVVWVNNHNGEPQSDAAEVEFNFHNGRVTHIRNDDDK” belongs 0.151; to “DEDELQRFAEQVNRVVRQGDPKQAERLFDENARVQIGDKTYHGREDISKMIENQRRRVDHIKVRRIDVQGNELVIHLVYNVNGQEHRNVLVFELHNGKIESAHRTDG”, 0.959. As for “DEEEASTIAKVFRTNNWEELVRLADENAKVKVGDKEVHGRHVVDEMVKLISDAADTIKYDSYTVQGEKIEMVVKLVINGQKVEFKLTARAHNGRIKEIVLSVRDEDQKRKFEKEDG”, the figure is 0.783; as for “DETTVHHILKNFNEAMEQGDPKQAMRLADKDVKLDVGDKRVSGSETLDTLVKNIRDQADTISVKTVHVDGDTAHAVLVIRINGKDVEFNVRIEVHNGRIKSLEMDPDKLKSAMK”, 0.852; as for “DEHRRAEEAAKRAMEIWKTGNERDAEDLADKNVSIDYGDKKYHGRHQIIKFFQELREDVDHVDLKVNDMDVKPGRAVANLRYVLNNDGRNRHDQHRMTLKLEGDKVYLKKIQQG”, -0.108. To “EEDKAKEAKEIWDKNNERDLRKKADKDARADVGDKKVHGMETAVQMWSKVRQHVDHVQYHDLKIQGETIRIDFVLHWNGRTVRAQVEFKVSNGQLVDFKLKFTDPDQERKLHEMQK” belongs 0.123; to “DEHSDAKRVLEELSKAMENGDEQRVEDQLDENVRINVGENHYHGREHARLWFKQIVDHVDHVRDSMEDYRNQGENFVYVMSVVYQSNGQEKSIRIVYVMKNHNGTVRMVNVHEG”, 1.02; to “DPKKMKEIADKMAKAVLNGNEEEVKKFGAPNVEAEVADQRTQGVDEIVKMLQKVKRMGMEVHTEEKREEGDFIEVHTKYRRGDTEATMTVQYYADNGKVKKIKVEYDRDAKKLFKHG”, 0.232. In the case of “DEERKKRVEEALRQEQQGNEEDYSELMDENVKITIGDKTIRGSKEAVRHFKEKMTQMRIELRDYRIQVHGNKVSVDLKYVNDHDGQPRHQKATATMDMTNGRVQSREVDNKP”, the protease stability score was found to be 0.186. To “DEEHQKIAKEALEQIQTGDEDEIKRQFDPNAKLQVGDQSVHGRETAAKFVRDRRRQMRIHLDDVDVKAKNGHVRLMMDVEVDHNGHPTKHRQVMIVKIHNGQIKKMTVNERD” belongs -0.028.
